This is an account of results in article PMC4269414, “Stubborn Contaminants: Influence of Detergents on the Purity of the Multidrug ABC Transporter BmrA” (PLoS ONE, 2014).

The target of series [1] is T1, E504Q BmrA mutant, full-length, His6-tagged (uncleaved) (Bacillus subtilis, UniProt O06967 1-589, E504Q).
T1 construct: BmrA, Bacillus subtilis, E504Q mutant; the part of the sample left uncut after a short trypsin digestion with 2 mM ATP and MgCl2; also called tagged, uncleaved monomer; source: E. coli membranes, solubilised with DDM, purified (Ni2+ high trap chelating column, PD-10 desalting); not shown: His6, N-terminal, kept
T1 sequence (looked up): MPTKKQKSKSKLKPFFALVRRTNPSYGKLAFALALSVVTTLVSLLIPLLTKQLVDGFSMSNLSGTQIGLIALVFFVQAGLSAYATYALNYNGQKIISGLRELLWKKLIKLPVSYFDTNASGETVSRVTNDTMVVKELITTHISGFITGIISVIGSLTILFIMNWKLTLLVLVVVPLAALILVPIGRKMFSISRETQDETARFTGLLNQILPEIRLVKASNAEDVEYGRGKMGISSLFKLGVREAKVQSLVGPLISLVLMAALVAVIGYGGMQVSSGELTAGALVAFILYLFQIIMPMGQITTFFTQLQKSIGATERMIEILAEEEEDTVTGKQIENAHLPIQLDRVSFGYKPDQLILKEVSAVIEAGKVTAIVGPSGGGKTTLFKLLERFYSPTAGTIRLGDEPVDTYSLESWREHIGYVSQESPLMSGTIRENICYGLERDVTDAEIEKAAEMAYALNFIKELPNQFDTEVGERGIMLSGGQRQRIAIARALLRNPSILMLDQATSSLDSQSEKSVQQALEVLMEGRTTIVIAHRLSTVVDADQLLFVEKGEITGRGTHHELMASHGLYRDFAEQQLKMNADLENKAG
Description: pull-down; second Ni2+ High Trap chelating column in DDM after partial trypsin cleavage of the N-terminal His6 tag; flow-through against the peak eluted with 250 mM imidazole, fractions on SDS-PAGE. Conditions: both partners purified.

Series [2] concerns the molecule itself. Nature of the series: crystal structure; OmpF crystallised from the FC12-purified BmrA sample with 5 mM ADP; PEG 1500, 2-methyl-2,4-pentanediol, 0.1 M Tris-HCl pH 8.0, 19°C; space group C2; molecular replacement with an OmpF trimer.
Series [3] deals with the molecule itself. Nature of the series: SEC; HiLoad 16/60 Superdex 200 PG, 25 mM Tris-HCl pH 8.0, 150 mM NaCl with detergent (DDM, UDM, UTM, LMNG, LDAO or FC12), 4°C; elution volume compared with that expected for dimers in detergent micelles. In general terms: Size exclusion chromatography separates by hydrodynamic size, large species first.

B1: E504Q BmrA mutant, untagged, cleaved by trypsin (starts at Leu12) (domain or fragment, Bacillus subtilis, UniProt O06967 12-589, looked up)
chain: LKPFFALVRRTNPSYGKLAFALALSVVTTLVSLLIPLLTKQLVDGFSMSNLSGTQIGLIALVFFVQAGLSAYATYALNYNGQKIISGLRELLWKKLIKLPVSYFDTNASGETVSRVTNDTMVVKELITTHISGFITGIISVIGSLTILFIMNWKLTLLVLVVVPLAALILVPIGRKMFSISRETQDETARFTGLLNQILPEIRLVKASNAEDVEYGRGKMGISSLFKLGVREAKVQSLVGPLISLVLMAALVAVIGYGGMQVSSGELTAGALVAFILYLFQIIMPMGQITTFFTQLQKSIGATERMIEILAEEEEDTVTGKQIENAHLPIQLDRVSFGYKPDQLILKEVSAVIEAGKVTAIVGPSGGGKTTLFKLLERFYSPTAGTIRLGDEPVDTYSLESWREHIGYVSQESPLMSGTIRENICYGLERDVTDAEIEKAAEMAYALNFIKELPNQFDTEVGERGIMLSGGQRQRIAIARALLRNPSILMLDQATSSLDSQSEKSVQQALEVLMEGRTTIVIAHRLSTVVDADQLLFVEKGEITGRGTHHELMASHGLYRDFAEQQLKMNADLENKAG
notes: BmrA, Bacillus subtilis, E504Q mutant, cut by trypsin between Lys11 and Leu12; The His6 tag is lost together with residues 1-11; also called untagged BmrA; untagged, cleaved, monomer
For the molecule B1, in series [1], the binding result is “binds”.

B2: Outer membrane protein F (OmpF) (natural protein, E. coli (endogenous in C41(DE3)), UniProt P02931 23-362, looked up)
chain: AEIYNKDGNKVDLYGKAVGLHYFSKGNGENSYGGNGDMTYARLGFKGETQINSDLTGYGQWEYNFQGNNSEGADAQTGNKTRLAFAGLKYADVGSFDYGRNYGVVYDALGYTDMLPEFGGDTAYSDDFFVGRVGGVATYRNSNFFGLVDGLNFAVQYLGKNERDTARRSNGDGVGGSISYEYEGFGIVGAYGAADRTNLQEAQPLGNGKKAEQWATGLKYDANNIYLAANYGETRNATPITNKFTNTSGFANKTQDVLLVAQYQFDFGLRPSIAYTKSKAKDVEGIGDVDLVNYFEVGATYYFNKNMSTYVDYIINQIDSDNKLGVGSDDTVAVGIVYQF
notes: Outer membrane protein F of E. coli, identified by mass spectrometry as P02931; structure deposited as PDB 4JFB, solved with a trimer of PDB 2ZFG as search model; The expression strain is C41(DE3), whose OmpF may differ from that entry; also called outer membrane porin OmpF; source: endogenous, E. coli C41(DE3); co-extracted and co-purified with BmrA in FC12, crystallised from that sample
For B2, the stoichiometry N (commonly a count of units in the complex or per binding partner) in series [2] worked out at 3.

B3: BmrA (Bacillus multidrug resistance ATP), 6-histidine N-terminal tag (natural protein, Bacillus subtilis, UniProt O06967 1-589, looked up)
chain: MPTKKQKSKSKLKPFFALVRRTNPSYGKLAFALALSVVTTLVSLLIPLLTKQLVDGFSMSNLSGTQIGLIALVFFVQAGLSAYATYALNYNGQKIISGLRELLWKKLIKLPVSYFDTNASGETVSRVTNDTMVVKELITTHISGFITGIISVIGSLTILFIMNWKLTLLVLVVVPLAALILVPIGRKMFSISRETQDETARFTGLLNQILPEIRLVKASNAEDVEYGRGKMGISSLFKLGVREAKVQSLVGPLISLVLMAALVAVIGYGGMQVSSGELTAGALVAFILYLFQIIMPMGQITTFFTQLQKSIGATERMIEILAEEEEDTVTGKQIENAHLPIQLDRVSFGYKPDQLILKEVSAVIEAGKVTAIVGPSGGGKTTLFKLLERFYSPTAGTIRLGDEPVDTYSLESWREHIGYVSQESPLMSGTIRENICYGLERDVTDAEIEKAAEMAYALNFIKELPNQFDTEVGERGIMLSGGQRQRIAIARALLRNPSILMLDEATSSLDSQSEKSVQQALEVLMEGRTTIVIAHRLSTVVDADQLLFVEKGEITGRGTHHELMASHGLYRDFAEQQLKMNADLENKAG
notes: also called multidrug ABC transporter BmrA; source: E. coli C41(DE3) membranes, solubilised and purified in detergent (Q-Sepharose and Ni column in FC12; or Ni-NTA and SEC in DDM, UDM, UTM, LMNG, LDAO or FC12); not shown: His6, N-terminal, kept
Take B3: in series [3], the “stoichiometry N” value was determined as 2.
